From the supplement of paper PMC9170038

Tested on: K4 kissing-loop RNA reporter
Assay: apparent KD of K4 kissing-loop reporter; higher = weaker reporter binding
Conditions: Eterna round: R107
Procedure: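 RNA-MaP round R107: designed RNA switches with theophylline, tryptophan, arginine or FMN aptamers are transcribed on-chip within common flanks. They are titrated with a labelled K4 kissing-loop RNA reporter in RNA-MaP buffer (100 mM Tris pH 7.5, 80 mM KCl, 4 mM MgCl2), without ligand or with the indicated ligand. Median apparent KD per design.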

[1] = input ligand: theophylline 20 uM
[2] = input ligand: tryptophan 2.4 mM
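Also: bound reporter read as fluorescence of individual clusters on recovered sequencing chips by microscopy, with normalized cluster intensities fitted with a binding model.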

Sequence	apparent KD of K4 kissing-loop reporter (input ligand: FMN 200 uM)	apparent KD of K4 kissing-loop reporter (input ligand: arginine 13.2 mM)	apparent KD of K4 kissing-loop reporter (input ligand: none)	apparent KD of K4 kissing-loop reporter [1]	apparent KD of K4 kissing-loop reporter [2]
UAAGCUCUGACGGCCGCCACUGCACGUGAAUCAGUGGUGGCUAACAUGAGUGAUGUUCAUGUAAGCAGGACCGGGUCAGAGCUAA [KL-XTryp-B14 #analogue]	112 nM	89.7 nM	93.4 nM	93.6 nM	109 nM
AAGUGAUGUUGUAGUGAUGUUGUGAUGUUGCAGGAUAUAUAGUGAUGUAGAAGGGUAUGUACUUAUUUUUUUUUUGAGUUUUGUU [xgghzrmullin]	82 nM	32.3 nM	60.2 nM	47.1 nM	68.3 nM
CCGCUGCCCUCAGGAUAUUAAGUAUUAGUGAUGUUAGUAAACCGAUGGCGAAAGCCAUCGGUAUGUUGAGAAGGGAGGGUAGCGG [whbob_SS_FMNB__2th199]	370 nM	627 nM	662 nM	1140 nM	550 nM
CGCAGUGAUGUUGCGAGUAGCUACAGGGAAGGAGCGCGCUAGUGCGCAGGUAGGUCGCCCACGCAGUGAUGUUGCGUCAUAGGGU [Exclusion Arg A GF8]	139 nM	114 nM	114 nM	137 nM	109 nM
AGGUCCGAGCCCGCAAGGGCUCGGACCUGUUAGGAUAUGACGUUAUUCAGAAGGGAUGGGUGGAGUGAUGUUCCACCCGCGAGGG [#2 Same State - FMN A Attempt #12 (HarryS)]	132 nM	131 nM	202 nM	–	149 nM
UGCAGUGAUGUUGCUAUUUGUCUUGAUUAACGAGGACCGGUACGGCCGCCACUCGAUUUCUCUCUAAUCGAGUAUGUUGUUUAGU [#19 K4 Tryptophan A Exclusion]	153 nM	184 nM	162 nM	203 nM	114 nM
CACGGUUAUACGGCCGCCACUGAUUGCGUUGCAGUGAUGUUGCACGCGUCCGACUACACCUCAUUCAGGACCGGGUAGACAUGCA [theeternabot_exclusion_KL_Trp_B_11]	238 nM	163 nM	230 nM	208 nM	246 nM
CGGAUGUAGUGAUGUUAUAUAAGAUGUAGACGAGGACCGGUACGGCCGCCACUCGAAACGGCUACUAGCGCGUUGCGAGGUGUGC [ExTryptoA.CI]	952 nM	460 nM	960 nM	674 nM	514 nM
UGUAUGUGAUUUGAUACCAGACAAGCAGGUGUGACAAGAGUGAUGUUCUUGAUGGUUUGGGUCCCUUGGCAGCAAAUCGCAUACU [KL-SSTheoB16]	194 nM	145 nM	178 nM	141 nM	154 nM
GCCGUAGAUUGAAGGAGCGCCUUCUUACCAAGAGUGAUGUUCUUUGGUACCAUGUUCAGCAGGCAGGUAGGUCGCAAUCUACGGC	195 nM	142 nM	188 nM	155 nM	169 nM
AAUGUACAGGGAAGGAGCGUAGUCCAGUGAUGUUGGAAUUAAAUUCCUGUGAUGUUGGUUAUACAGGUAGGUCGCCCUAAAGUGC [KL-XARG-B21]	112 nM	92.2 nM	108 nM	118 nM	93.3 nM
UCUGGUAUAUCUGAUACCAGAGUAUAGUAUCAAUUGCAUAUCCGCAGUGAUGUUGCGGAACUCCCUUGGCAGCAGAUCUAUCUCU [Same State Theophylline B GF 26]	71.6 nM	90.6 nM	81.8 nM	86.8 nM	70 nM
GGAUAGGACAAAGGAUAUGGUAGUGAUGUUACCAAACUGGUUAAACAUGUCAGAAAACUGGCAUGACCAGAAGGUUGUCCUAUCG [FmnBX 27 A11+U75]	86.4 nM	62.8 nM	66.3 nM	61.1 nM	66.9 nM
AUCUUGUUUGGAGGAUAUUCUUUAUUUGACAUAACCUUCUAUAAGGUGCAGUGAUGUUGCAAUAUAGGAGAAGGUCGAGUGAGAU [Exclusion FMN B GF 18]	190 nM	160 nM	188 nM	202 nM	177 nM
GCUACUGCCUUAGGAUAUAGUUGAGUGAUGUUCAAGCAUAUGCAUGGGAAAACCAUGCAUAUGUCCCUAGAAGGGAGGCAGUAGC	800 nM	627 nM	859 nM	630 nM	740 nM
GGCCGCAAGGCGGGCCGGCCCACUCCGGAAGGAGCGCCCGCAAGGGCAGGUAGGUCGCCGGAGUGAUGUUCCGGUGGCCGGCCCG [#2 Exclusion - Arginine A Attempt #2 (Inspired by Omei)]	140 nM	136 nM	133 nM	93.8 nM	130 nM
UCCAAUAUUUAUUGAUCCGCCUCGCAUCAACGAGGACCGGUACGGCCGCCACUCGUGCCUAGGUAGUGAUGUUACUUAGUUUACU [theeternabot_sameState_KL_Trp_A_32]	93.2 nM	162 nM	114 nM	188 nM	196 nM
UGGAUAUAGUGAUGUUAUAUAGAGAUGGAUACCAGUUGAGAGAAUAGCCCUUGGCAGCCGAAAGAAGUAUCAUUAGAGAAGAAUG [ExTheophyl.Ak]	269 nM	200 nM	230 nM	219 nM	173 nM
ACGAUUUACAGAAGGAGCGUGUAUUUAACUACAAUUAUCUUAGCGAGUGAUGUUCGUUUUACACAGGUAGGUCGCUGUAUAUCGA [JR_ExcArginiB_Sub011]	218 nM	303 nM	263 nM	374 nM	220 nM
AUUUUGGUUUAGAGUGAUGUUCCUUGUAUUCGAGGACCGGUACGGCCGCCACUCGAAUAGAAAAGAAAAGAAAUGUUUGAUUUUU [BDazzled - #7 SS Tryptophan A]	406 nM	211 nM	556 nM	351 nM	361 nM
GGCAUGCGUAGAGUGAUGUUCUAAGAUGAUACCAGUGCGGAAACGCACCCUUGGCAGCAUCUGACUGGCAUGCCGGCGAAAGCCU	871 nM	811 nM	1240 nM	770 nM	982 nM
UGGCGUAGAACCGCCGAAUCGCUGUGAGAAGGAGCGGUAAAAUUGCCAGGUAGGUCGCUCACAGCCUCACAGUGAUGUUGUGGGA [Cequralaza]	758 nM	105 nM	117 nM	290 nM	212 nM

Sequence	apparent KD of K4 kissing-loop reporter (input ligand: FMN 200 uM)	apparent KD of K4 kissing-loop reporter (input ligand: arginine 13.2 mM)	apparent KD of K4 kissing-loop reporter (input ligand: none)	apparent KD of K4 kissing-loop reporter [1]	apparent KD of K4 kissing-loop reporter [2]
AGAACUGUCUUGGAUACCAGUGAUGUUGGUAUCGAUGUGUGAGUGCAAAGCGUCCCACAUUGCCCUUGGCAGCUAAGACUGUUCA [Omei KL Theo B Exc A v3]	158 nM	134 nM	148 nM	179 nM	144 nM
AAUACAGUGUCGGCCGCCACUGUAACAUGCCAUGAGACAUGAGACAUGAGUGAUGUUCAUGUAGACAGGACCGGGACUCAUGUAU [KL-SSTryp-B3 #analogue]	450 nM	373 nM	455 nM	370 nM	227 nM
CUGGGUUGACGAAAAGUCAACAAAAGAGAAGGAGCGCACGAAAGUGCAGGUAGGUCGCUCAAUCCAGUGAUGUUGGGUCGUCCAG [#OpenEnded 11 #K4Late]	279 nM	192 nM	284 nM	285 nM	222 nM
AUUCGCAGUGAUGUUGCGAUUCCGUUGAGGGAGGAUAUUGGUAAUACAAGAAGGCCCGGCUGCGGGUGAUGUUCGCAUUAGGGCC [Exclusion FMN A GF18]	151 nM	143 nM	146 nM	153 nM	126 nM
UAGCGGUGGAGGCCACCGCUAUUCUGAGAAGGAGCGCAGAUGACUGCAGGUAGGUCGCUUAGAGCUUGCAGUGAUGUUGCAAGUU [Araatlaqu]	191 nM	144 nM	191 nM	223 nM	177 nM
UUUCGUCUCUGAGGAUAUCAGAAUAGAGUGAUGUUCUAUCAAAGCCCAGUGAUGUUGGAUGCUAUCUGAGAAGGCAGUGGGCGAG [Same State FMN B GF 11]	196 nM	183 nM	249 nM	185 nM	219 nM
UUGGAAAUCAGAAGGAGCGUCUAAAAUGAAGGAACCAGUGAUGUUGGUUUUAUUUAAUGAAGACAGGUAGGUCGCUGAAUUUUUA [Same State Arginie B GF 18]	91.4 nM	101 nM	94.4 nM	116 nM	91.5 nM
CAAACUCUGACGGCCGCCACUAAUCGUGUAACAGUGAUGUUGUUACAUCAAAGAUGGGUUGCGUGUAGGACCGGGUCGACGCAAA [theeternabot_exclusion_KL_Trp_B_48]	131 nM	120 nM	120 nM	111 nM	124 nM
UGUCGAGUGAUGUUCGAUUUGGUGCAUGCAGAGGAUAUAGGGUGGGCUAGAAGGCUGAAAAGUGCUUCGAGUGAUGUUCGAAGUU [Exclusion FMN A GF10]	117 nM	113 nM	100 nM	100 nM	97.3 nM
GGGCAUCUGGCUGAUACCAGUGAUAAAGGGUAAGAGACAGGGAGUGAUGUUCCCUUUAGCCACCCUUGGCAGCAGUUUAAGUUUG [Exclusion Theophylline B GF 17]	83.5 nM	83.3 nM	94.7 nM	85.4 nM	76.4 nM
AUCGAUAUCAGAGGAUAUGCUUAAUAGAUUUAUUAUUAUCUAUUAUGCAGUGAUGUUGCAUAUUUUGCAGAAGGCUGAUUUCGAA [JR_SSFMNB_Sub019]	124 nM	433 nM	447 nM	429 nM	403 nM
AUUUGUUUAUGCGAUACCAGACUAAGCAGUGAUGUUGCUUUUAUUUUUGAAUUUUAAAUAGUCCCUUGGCAGCGCUAUGUCUGUA [#06 K4 Theophylline B Same State]	127 nM	200 nM	183 nM	217 nM	119 nM
GGUGCGGGCUCGGCCGCCACUCCCUCCUGCCGUAAGGUGGGAUACCGAGUGAUGUUCGGUUGGAGGAGGACCGGGAGCCCGUGCC [#2 Exclusion - Tryptophan B Attempt #16 (HarryS)]	131 nM	102 nM	114 nM	110 nM	125 nM
AAAAUAAUCCAGUGAUGUUGGUAUCCAGAUACCAGCCAGGAAACUGGCCCUUGGCAGCUGUGGACGUACAAAAUAAGUACGUCCU [#OpenEnded 10 #StaticStem #K4Early]	481 nM	268 nM	464 nM	611 nM	355 nM
UCCUAGGCUCGAAAGAGCCUAGGAUUAUCUCAGGAUAUCCGGAAACGGAGAAGGGAGAAACUAGUGAUGUUAGGGAUUCCCUAUU	574 nM	184 nM	213 nM	259 nM	137 nM
GGAUCGCAUGGCGAAAAGCCAUGCGAUCCACGAGGACCGGUACGGCCGCCACUCGCCGGAGUGAUGUUCCGCUACAGAUCUUAAA	187 nM	121 nM	256 nM	144 nM	301 nM
AUGGUUGUCGUAGGAUAUGUAGGAUAUUCCUAUAGCAGUGAUGUUGCUAAUAUCUUGGAAAGAAGGACAGAAGGACGAUAACCAC [KL-SSFMN-B2 #analogue]	114 nM	112 nM	119 nM	108 nM	111 nM
ACCCUGGGUCCCGAAAGGGACCCAGGGAGUGAGGAUAUGUGGAAACACAGAAGGCACAGCACAGUGAUGUUGUGCGACGAAAGUC [#02 K4 FMN A Same State]	566 nM	97.5 nM	401 nM	175 nM	217 nM
GUAUCAGUGAUGUUGAUAGGCGAGCGGGAUACCAGCCAAGACUCAGGCCCUUGGCAGCCCACAUAUCCCACGUAGAUAGUAGCUC [Same State - Theophylline A (Freestyle 16)]	137 nM	105 nM	128 nM	139 nM	123 nM
UGGCGAGUGAUGUUCGUUGUUGUAGUGUGUCGAGGACCGGUACGGCCGCCACUCGAGUUGGUUGUUGUUGUUGCUGUUGUUGCUG [#03 K4 Tryptophan A Same State]	196 nM	158 nM	181 nM	157 nM	99 nM
ACGAUCAUGUCGGCCGCCACUGAGAGUAGUGAUGUUACUUUUAUGUUUUAGUUAUAAUAUUUGAACAGGACCGGGACAUGUUCGU [JR_ExcTryptoB_Sub023]	103 nM	84.8 nM	85.3 nM	80.1 nM	92.2 nM
